This is an account of results in US20210253643A1, “HYDROPHOBIC BIOMOLECULE STABILIZING SCAFFOLD PEPTIDES AND METHODS OF MAKING AND USING SAME” (The University of British Columbia, priority 2018, published 2021).

Assay [1] has as its target T1, FhuA (E. coli), P06971.
T1 chain: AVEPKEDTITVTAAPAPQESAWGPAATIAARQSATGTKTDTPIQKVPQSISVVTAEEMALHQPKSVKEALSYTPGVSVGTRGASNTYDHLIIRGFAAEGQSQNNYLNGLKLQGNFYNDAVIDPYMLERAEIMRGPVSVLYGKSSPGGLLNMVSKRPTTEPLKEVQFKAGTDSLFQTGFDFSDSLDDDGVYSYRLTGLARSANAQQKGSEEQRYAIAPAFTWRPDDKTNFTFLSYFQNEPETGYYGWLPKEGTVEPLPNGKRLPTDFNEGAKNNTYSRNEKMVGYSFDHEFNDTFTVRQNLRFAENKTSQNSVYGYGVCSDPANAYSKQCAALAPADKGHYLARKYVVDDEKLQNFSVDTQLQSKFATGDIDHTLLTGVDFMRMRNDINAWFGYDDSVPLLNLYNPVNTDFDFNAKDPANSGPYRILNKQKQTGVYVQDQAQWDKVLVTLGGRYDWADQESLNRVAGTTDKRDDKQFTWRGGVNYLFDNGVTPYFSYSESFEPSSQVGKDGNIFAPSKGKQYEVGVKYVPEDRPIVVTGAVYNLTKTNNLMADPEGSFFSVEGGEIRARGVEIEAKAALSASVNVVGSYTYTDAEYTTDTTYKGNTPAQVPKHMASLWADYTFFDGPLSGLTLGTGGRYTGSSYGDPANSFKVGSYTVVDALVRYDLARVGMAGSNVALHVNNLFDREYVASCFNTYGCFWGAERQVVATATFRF
The assay can be described thus: in-gel reconstitution, CN-PAGE titration of NSPr, Boltzmann fit.

In assay [2] the target is MalFGK2, P02916. The description is as above.
MalFGK2, P02916, sequence (P02916 whole entry, chain 1 of 3): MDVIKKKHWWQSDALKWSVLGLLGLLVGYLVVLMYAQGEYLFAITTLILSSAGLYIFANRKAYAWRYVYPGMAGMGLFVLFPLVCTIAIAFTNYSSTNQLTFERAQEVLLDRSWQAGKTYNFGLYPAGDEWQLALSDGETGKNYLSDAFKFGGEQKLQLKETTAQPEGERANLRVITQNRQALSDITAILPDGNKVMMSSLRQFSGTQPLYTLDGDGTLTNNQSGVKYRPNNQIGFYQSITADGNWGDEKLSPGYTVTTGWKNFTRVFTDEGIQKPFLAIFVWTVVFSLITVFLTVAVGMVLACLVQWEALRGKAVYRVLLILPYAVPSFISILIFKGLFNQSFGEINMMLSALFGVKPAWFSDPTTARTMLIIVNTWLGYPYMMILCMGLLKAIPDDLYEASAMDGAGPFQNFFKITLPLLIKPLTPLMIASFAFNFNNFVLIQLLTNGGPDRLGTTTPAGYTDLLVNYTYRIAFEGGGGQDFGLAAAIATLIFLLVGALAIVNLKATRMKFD
MalFGK2, P02916, sequence (P68183 whole entry, chain 2 of 3, further chain): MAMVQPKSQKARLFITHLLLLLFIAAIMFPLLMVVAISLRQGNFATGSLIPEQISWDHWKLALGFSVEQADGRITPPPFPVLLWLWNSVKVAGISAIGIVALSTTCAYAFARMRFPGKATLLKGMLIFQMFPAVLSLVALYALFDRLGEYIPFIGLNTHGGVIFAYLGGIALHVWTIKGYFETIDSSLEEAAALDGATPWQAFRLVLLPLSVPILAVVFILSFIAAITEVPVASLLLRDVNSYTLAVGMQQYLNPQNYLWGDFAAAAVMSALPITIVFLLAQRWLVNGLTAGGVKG
MalFGK2, P02916, sequence (P68187 whole entry, chain 3 of 3, further chain): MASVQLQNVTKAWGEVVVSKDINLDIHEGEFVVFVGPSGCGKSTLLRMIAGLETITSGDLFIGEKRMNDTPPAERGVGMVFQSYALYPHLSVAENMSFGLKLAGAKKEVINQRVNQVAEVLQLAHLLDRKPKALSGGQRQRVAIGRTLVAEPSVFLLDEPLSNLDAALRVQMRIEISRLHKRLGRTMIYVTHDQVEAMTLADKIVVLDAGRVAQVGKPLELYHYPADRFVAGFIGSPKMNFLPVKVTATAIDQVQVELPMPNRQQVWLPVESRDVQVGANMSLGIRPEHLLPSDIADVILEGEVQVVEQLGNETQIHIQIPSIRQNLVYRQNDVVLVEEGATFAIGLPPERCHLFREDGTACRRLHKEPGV
The target in assay [3] is T2, SecYEG complex, P0AGA2.
T2 chain 1: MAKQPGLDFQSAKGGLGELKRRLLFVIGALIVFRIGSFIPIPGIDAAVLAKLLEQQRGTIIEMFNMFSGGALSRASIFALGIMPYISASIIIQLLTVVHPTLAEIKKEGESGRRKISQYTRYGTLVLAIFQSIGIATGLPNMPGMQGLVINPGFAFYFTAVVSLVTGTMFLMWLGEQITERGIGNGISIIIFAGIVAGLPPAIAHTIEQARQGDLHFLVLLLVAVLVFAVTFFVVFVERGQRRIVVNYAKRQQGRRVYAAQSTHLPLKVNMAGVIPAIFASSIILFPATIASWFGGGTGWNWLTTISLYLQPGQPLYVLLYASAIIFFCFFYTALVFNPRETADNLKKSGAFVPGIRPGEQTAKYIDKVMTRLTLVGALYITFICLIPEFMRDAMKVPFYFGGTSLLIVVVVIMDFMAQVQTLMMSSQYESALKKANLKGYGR
T2 chain 2: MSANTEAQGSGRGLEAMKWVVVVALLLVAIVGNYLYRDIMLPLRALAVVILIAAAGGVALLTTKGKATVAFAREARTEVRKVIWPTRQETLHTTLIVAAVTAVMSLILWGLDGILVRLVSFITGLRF
T2 chain 3: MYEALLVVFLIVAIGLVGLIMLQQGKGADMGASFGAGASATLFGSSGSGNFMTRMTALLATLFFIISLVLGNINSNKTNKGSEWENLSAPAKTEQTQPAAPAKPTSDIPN
The assay is described as above.

Assay [4] concerns the target T3, trimeric OmpF porin (E. coli), P02931.
T3 chain: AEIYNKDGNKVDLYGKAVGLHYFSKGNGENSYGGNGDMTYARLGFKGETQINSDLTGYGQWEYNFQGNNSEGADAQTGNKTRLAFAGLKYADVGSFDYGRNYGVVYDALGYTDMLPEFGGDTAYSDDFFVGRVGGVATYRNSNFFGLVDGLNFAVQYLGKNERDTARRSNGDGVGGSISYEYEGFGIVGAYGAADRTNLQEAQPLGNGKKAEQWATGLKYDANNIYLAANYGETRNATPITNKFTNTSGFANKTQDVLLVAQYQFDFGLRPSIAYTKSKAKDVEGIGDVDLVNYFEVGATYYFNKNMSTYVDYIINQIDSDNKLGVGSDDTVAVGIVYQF
The description is as above.

The target in assay [5] is MalFGK2, P02916. Put plainly: BN-PAGE of MalFGK2-NSPr after 1 hr of incubation at 30 °C.
Assay [6] has as its target MalFGK2, P02916. Put plainly: BN-PAGE of MalFGK2-NSPr after 2 hr of incubation at 30 °C.
For assay [7], the target named is MalFGK2, P02916. The assay can be described thus: BN-PAGE of MalFGK2-NSPr after 3 hr of incubation at 30 °C.
Assay [8] addresses MalFGK2, P02916. The assay can be described thus: BN-PAGE of MalFGK2-NSPr, time 0 hr of incubation at 30 °C.
The target of assay [9] is MalFGK2, P02916. Put plainly: SDS-PAGE densitometry of purified peptidisc against an NSPr standard curve.
In assay [10] the target is photosynthetic bacterial reaction center (BRC) from Rhodobacter sphaeroides (Rhodobacter sphaeroides), P0C0Y9. The assay is described as above.
Assay [11] concerns the target T1, FhuA (E. coli), P06971. Put plainly: density of the FhuA band of FIG. 19B plotted against log(mol NSPr/mol FhuA); half-maximal reconstitution ratio RR50.
For assay [12], the target named is T1, FhuA (E. coli), P06971. The assay can be described thus: western blot with streptavidin-Alexa 680 of peptidisc made with NSPrbio, against a standard curve.
The target of assay [13] is membrane proteins. The assay can be described thus: on-gel reconstitution, competitor equimolar NSPr-FAM; 0 no, 100 full competition.

No end group written: not given here.

Consider FAEKFKEAVKDYFAKFWDPAAEKLKEAVKDYFAKLWD (modifications not checked) [NSPr], for which the RR50 (half-maximal reconstitution molar ratio) (mol NSPr/mol protein) in assay [1], in [2], in assay [3] and in [4] was 20 each time. Moreover, the (%) of the MalFGK2 Peptidisc band in assay [5] came out at 89%; in [6], 86%; in assay [7], 84%; in assay [8], 100%. Moreover, the Measured NSPr stoichiometry (NSPr/disc) in assay [9] stood at 10 NSPr/disc; in assay [10] it was 9 NSPr/disc. Further, the EC50 (read off the curve) (mol NSPr/mol FhuA) in assay [11] amounted to 20.

In turn, FAEKFKEAVKDYFAKFWDPAAEKLKEAVKDYFAKLWD (not fully specified (N-terminus)) [NSPr-biotin] displayed a Measured NSPr stoichiometry (NSPr/disc) in assay [12] of 10 NSPr/disc.

Take DWLKAFYDKVAEKLKEAAPDWFKAFYDKVAEKFKEAF (not fully specified (N-terminus, C-terminus)) [Ac-NSP-NH2]: the Competition peptide (% NSPr-FAM) in assay [13] came out at 10%.
